The values below come from the Immune Epitope Database (IEDB).

As usually defined, the Kd is the equilibrium constant for the complex coming apart. Lower therefore signals higher affinity.

In assay [1] the target is HLA-A*02:01. As to the kind of experiment: IEDB peptide-MHC binding, purified MHC/direct/fluorescence; filed as Kd, often an IC50 or EC50 that approximates it; ≥ and ≤ were set here for values at or beyond the usual limits of such assays.
The next assay addresses HLA-A*24:03. The description is as above.
In another assay the target is HLA-A*11:01. The description is as above.
A further assay has as its target HLA-B*08:01. The assay is described as above.
A further assay has as its target HLA-B*27:05. The description is as above.
Assay [2] deals with HLA-B*15:01. Described as above.
In assay [3] the target is HLA-A*03:01. The description is as above.
The target in another assay is HLA-B*58:01. Described as above.
In assay [4] the target is HLA-A*69:01. The assay is described as above.
The target of a further assay is HLA-A*31:01. The description is as above.
A further assay has as its target HLA-A*01:01. The description is as above.
For another assay, the target named is HLA-B*07:02. Described as above.
The target in assay [5] is HLA-A*26:01. Described as above.
Another assay concerns the target HLA-B*35:01. The assay is described as above.
In a further assay the target is HLA-B*44:02. Described as above.
The next assay has as its target HLA-B*40:01. The description is as above.
The target of assay [6] is HLA-B*57:01. As to the kind of experiment: IEDB peptide-MHC binding, purified MHC/competitive/fluorescence; filed as Kd, often an IC50 or EC50 that approximates it; ≥ and ≤ were set here for values at or beyond the usual limits of such assays.
Assay [7] concerns the target HLA-A*02:01. Described as above.
In a further assay the target is HLA-B*51:01. The description is as above.
In another assay the target is HLA-B*39:01. The assay is described as above.
The target of assay [8] is HLA-B*15:01. The assay is described as above.
For assay [9], the target named is HLA-A*03:01. Described as above. The settings on record: source organism: Pan troglodytes.
A further assay concerns the target HLA-B*46:01. The description is as above. The settings on record: source organism: Pan troglodytes.
The target in assay [10] is HLA-A*69:01. The description is as above.
The target in assay [11] is HLA-B*18:01. The assay is described as above.
The target of assay [12] is HLA-A*68:02. The assay is described as above. The settings on record: source organism: Pan troglodytes.
The target in assay [13] is HLA-B*15:17. Described as above.
Assay [14] has as its target HLA-A*26:01. Described as above.
For the next assay, the target named is HLA-B*27:03. The assay is described as above.
In the next assay the target is HLA-A*02:06. The description is as above. Conditions: source organism: Orthomarburgvirus marburgense.
For assay [15], the target named is HLA-B*57:01. Description: IEDB peptide-MHC binding, purified MHC/direct/fluorescence; filed as Kd, often an IC50 or EC50 that approximates it; ≥ and ≤ were set here for values at or beyond the usual limits of such assays. The settings on record: source organism: Marburg virus - Musoke, Kenya, 1980.
Another assay addresses HLA-B*15:09. Described as above. Conditions: source organism: Ravn virus - Ravn, Kenya, 1987.
In the next assay the target is HLA-B*48:01. Described as above. The settings on record: source organism: Marburg virus - Musoke, Kenya, 1980.
Assay [16] concerns the target HLA-B*18:01. Described as above. Conditions: source organism: Marburg virus - Musoke, Kenya, 1980.
In assay [17] the target is HLA-A*68:02. The assay is described as above. The settings on record: source organism: Marburg virus - Musoke, Kenya, 1980.
The target in assay [18] is HLA-B*15:17. Described as above. The settings on record: source organism: Marburg virus - Musoke, Kenya, 1980.
The target in another assay is HLA-A*02:12. Described as above. The settings on record: source organism: Limestone Canyon virus.
A further assay concerns the target HLA-C*15:02. The assay is described as above. The settings on record: source organism: Four Corners hantavirus.
The target in the next assay is HLA-A*02:16. The description is as above. Conditions: source organism: Limestone Canyon virus.
For a further assay, the target named is HLA-A*29:02. The assay is described as above. The settings on record: source organism: Limestone Canyon virus.
For the next assay, the target named is HLA-A*02:19. The assay is described as above. The settings on record: source organism: Limestone Canyon virus.
The mark [19] stands for this setting: source organism: Salmonella enterica subsp. enterica serovar Typhi.
Where [20] appears, read: source organism: Pan troglodytes.
Where [21] appears, read: source organism: Marburg virus - Musoke, Kenya, 1980.
Setting [22] is: source organism: Ravn virus - Ravn, Kenya, 1987.
Setting [23] is: source organism: Brucella abortus.
[24] abbreviates: source organism: Brucella melitensis.
The mark [25] stands for this setting: source organism: Four Corners hantavirus.

Regarding LPLIVDTAA, the Kd was no less than 20 µM with HLA-A*02:01 [1] (setting [19]); no less than 20 µM with HLA-A*24:03 (setting [19]); no less than 20 µM with HLA-A*11:01 (setting [19]); 11.2 µM in the assay with HLA-B*08:01 (setting [19]); no less than 20 µM with HLA-B*27:05 (setting [19]); no less than 20 µM with HLA-B*15:01 [2] (setting [19]). The Kd with HLA-A*03:01 [3] (setting [19]) is no less than 20 µM; in the assay with HLA-B*58:01 (setting [19]), no less than 20 µM; in the assay with HLA-A*69:01 [4] (setting [19]) it was no less than 20 µM; with HLA-A*31:01 (setting [19]), no less than 20 µM; with HLA-A*01:01 (setting [19]) it was no less than 20 µM; in the assay with HLA-B*07:02 (setting [19]) it was 5.75 µM. Besides, the equilibrium dissociation constant (Kd) with HLA-A*26:01 [5] (setting [19]) was no less than 20 µM; with HLA-B*35:01 (setting [19]), 0.00636 µM; with HLA-B*44:02 (setting [19]) it was no less than 20 µM; with HLA-B*40:01 (setting [19]), no less than 20 µM.

Regarding FLFDRLTNG, the Kd with HLA-B*57:01 [6] (setting [20]) is no less than 20 µM; with HLA-A*02:01 [7] (setting [20]) it was 0.0015 µM; with HLA-B*51:01 (setting [20]), no less than 20 µM; with HLA-B*39:01 (setting [20]) it was no less than 20 µM; with HLA-B*15:01 [8] (setting [20]), no less than 20 µM; with HLA-A*03:01 [9], no less than 20 µM. Moreover, the Kd with HLA-B*46:01, in the assay with HLA-A*69:01 [10] (setting [20]), in the assay with HLA-B*18:01 [11] (setting [20]), in the assay with HLA-A*68:02 [12], in the assay with HLA-B*15:17 [13] (setting [20]) and in the assay with HLA-A*26:01 [14] (setting [20]) was no less than 20 µM throughout. This sequence also returned a dissociation constant Kd with HLA-B*27:03 (setting [20]) of no less than 20 µM.

As for GEGSGARLL, the Kd with HLA-A*02:01 [7] (source organism: Orthomarburgvirus marburgense) is 4.69 µM; with HLA-A*02:06, 1.14 µM; with HLA-B*57:01 [15], no less than 20 µM; with HLA-A*11:01 (setting [21]), no less than 20 µM; in the assay with HLA-B*08:01 (setting [22]), no less than 20 µM; in the assay with HLA-B*15:09, no less than 20 µM. For the same sequence, the Kd with HLA-B*27:05 (setting [21]), with HLA-B*58:01 (setting [21]), in the assay with HLA-B*48:01, in the assay with HLA-A*69:01 [4] (setting [21]), with HLA-B*18:01 [16] and with HLA-A*68:02 [17] was no less than 20 µM in each case. Also, the dissociation constant Kd in the assay with HLA-B*15:17 [18] was no less than 20 µM; with HLA-A*31:01 (setting [21]), no less than 20 µM; with HLA-A*01:01 (setting [21]), no less than 20 µM; with HLA-B*07:02 (setting [21]), no less than 20 µM; with HLA-A*26:01 [5] (setting [22]), no less than 20 µM; in the assay with HLA-B*40:01 (setting [21]) it was 0.279 µM.

As to GYSFSIPGY, the Kd with HLA-A*02:01 [1] (setting [23]) is no less than 20 µM; with HLA-A*24:03 (setting [24]), 1.07 µM; with HLA-A*11:01 (setting [23]), no less than 20 µM; with HLA-B*08:01 (setting [23]), no less than 20 µM; with HLA-B*27:05 (setting [23]), no less than 20 µM; with HLA-B*15:01 [2] (setting [24]), 0.548 µM. The Kd in the assay with HLA-A*03:01 [3] (setting [23]), with HLA-B*58:01 (setting [23]), in the assay with HLA-A*69:01 [4] (setting [23]), with HLA-A*31:01 (setting [23]), with HLA-B*07:02 (setting [23]) and with HLA-A*26:01 [5] (setting [23]) was no less than 20 µM in each case. Moreover, the Kd with HLA-B*35:01 (setting [24]) was 0.468 µM; with HLA-B*44:02 (setting [23]) it was no less than 20 µM; with HLA-B*40:01 (setting [23]), no less than 20 µM.

As for KARNIISPV, the Kd with HLA-B*57:01 [6] (setting [25]), with HLA-B*51:01 (setting [25]), with HLA-B*39:01 (setting [25]), with HLA-B*15:01 [8] (setting [25]), with HLA-A*69:01 [10] (setting [25]) and in the assay with HLA-B*18:01 [11] (setting [25]) was no less than 20 µM in each case. Also, the Kd with HLA-B*15:17 [13] (setting [25]) is no less than 20 µM; in the assay with HLA-A*26:01 [14] (setting [25]), no less than 20 µM; with HLA-B*27:03 (setting [25]), no less than 20 µM; in the assay with HLA-A*02:12, no less than 20 µM; with HLA-C*15:02, 0.088 µM; with HLA-A*03:01 [3] (source organism: Limestone Canyon virus), no less than 20 µM. Besides, the Kd in the assay with HLA-A*02:16 is no less than 20 µM; with HLA-A*29:02, no less than 20 µM; with HLA-B*07:02 (source organism: Hantavirus Monongahela-3) it was 0.107 µM; with HLA-A*02:19, no less than 20 µM.
